B1: TPR 5TU (parent)
chain: GGAUCUUCUCGAUCUAACAAAAAAGACAAAUCUGCCACAAAGCUUGAGAGCAUCUUCGGAUGCAGAGGCGGCAGCCUUCGGUGGCGCGAUAGCGCCAACGUUCUCAACUAUGACACGCAAAACGCGUGCUCCGUUGAAUGGAGUUUAUCAUG

This sample holds only a part of the variants without activity.

The data set covers variants of B1. The experiment in a line: polymerase ribozyme fitness, log enrichment relative to wild type (log ratio); higher = more active; in vitro selection for triplet polymerase activity. In a few lines:
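Both subunits of a heterodimeric triplet polymerase ribozyme were given their own mutant library, built by PCR and transcribed. Each library was annealed with a biotinylated primer, the partner subunit and triplets, incubated frozen at −7 °C, and its extended constructs gel-excised, captured on streptavidin beads and amplified by RT-PCR, all in one round done in triplicate. Fitness is the logarithm of genotype enrichment relative to wild-type enrichment, with replicates averaged by inverse-variance weighting. That logarithm is base 2, and Illumina-sequenced genotypes needed ≥10 input reads and ≥1 read per output.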
For the variant C96G C105G, the “polymerase ribozyme fitness (log ratio)” value was -1.92.
Consider U33G A41U G46C C54G G62C G70U C96A A120G G124U, for which the “polymerase ribozyme fitness (log ratio)” value was no more than -4.2.
Next, C36G U55G A73U C108U C118A G133U: -4.17.
Next, G94C U101A G152A: -2.72; A26U U44A G58A C87U A107G C123G G141C: -3.93; C85A G112U A113C U148G: no more than -4.2.
For the variant C36U G59C C95A, the “polymerase ribozyme fitness (log ratio)” value is -1.64.
Turning to A17U A26C G62U U78G G100A G152U, the “polymerase ribozyme fitness (log ratio)” value is no more than -4.2.
Next, C96U A119U G152C: -3.13; A49U G59A A115U A119C: -3.36.
For G48C C54U G58C C87U C123U the value was -1.05.
Next, A12G A52U C76U C93U A120U: -2.12; A122C C149U: -1.16; C75G U134G: -4.
Consider A19G G46C A107U A120C C129U, for which the “polymerase ribozyme fitness (log ratio)” value is no more than -4.2.
With C5A A30G C36U G68U G100A, the “polymerase ribozyme fitness (log ratio)” value was no more than -4.2.
Next, C95G A97C: -0.47; C18G C35U C75U C95U A120G U134C: -2.68.
Turning to A66G, the “polymerase ribozyme fitness (log ratio)” value was -2.32.
Next, G59C C93A C95A: -4.05.
Turning to C27G C38A C54U G92U U134G, the “polymerase ribozyme fitness (log ratio)” value was no more than -4.2.
Consider A24C G62C G86U U102C, for which the “polymerase ribozyme fitness (log ratio)” value was no more than -4.2.
Next, C76G U127C A150U: no more than -4.2.
For U13G G83C C99G C118G C123U A137G the value was no more than -4.2.
For G48C U56C A73G C118A the value was -2.46.
As to A30U A91U U104G, the “polymerase ribozyme fitness (log ratio)” value was no more than -4.2.
A17G A22C U61A G84U C96U U109A U111A G141A: the “polymerase ribozyme fitness (log ratio)” value was no more than -4.2.
For A26U G42U the value was no more than -4.2; for C5G A21G U55A C57U A147C, -0.914.
In the case of U45A A49U, the “polymerase ribozyme fitness (log ratio)” value is no more than -4.2.
On to G74C, for which the “polymerase ribozyme fitness (log ratio)” value was -3.96.
Next, U82C C85U C114A: -3.22; C51U C116U A121C G152U: -3.78.
For U7G G92U the value was -2.39; for U44C G50U U101G C131U U139C C149U, no more than -4.2; for A22U A47U U53G U55A C57U G68A G86C C99U A138C U148G, no more than -4.2.
For C75U U145C U146G the value was -0.419; for C32G A40U C57U U135G, no more than -4.2.
As to A41G G143U, the “polymerase ribozyme fitness (log ratio)” value is -1.73.
Next, G84A C131A: -2.79; C69G C72U U134A: no more than -4.2; C27G C54U C76G U144G: no more than -4.2.
Next, A39U C51G U55G U61G C85U C99U: no more than -4.2.
For C85U G140A the value was -3.24; for A21U C38A, 0.268; for U4A A22C U56A G124U U135C, -3.48.
Consider G71U C93U U104G C149A, for which the “polymerase ribozyme fitness (log ratio)” value is no more than -4.2.
For A52G C87U C93U C131A G136A G143C U145G U146G the value was no more than -4.2; for A28G U53A, -3.62; for A17U G100U U134A U145G, no more than -4.2.
Next, C14A U90G A137C: no more than -4.2; U7A C54A C72A: no more than -4.2.
Take C5A G81U C85G C99U U134A: the “polymerase ribozyme fitness (log ratio)” value is -4.04.
For C18U C96G U127C G143A the value was -4.17; for A26U G42U U44A U55A G59U C103G A119G A120U G140U, no more than -4.2; for A47C G83C G112C, no more than -4.2.
Next, A19U G141A: 0.304; C14U C105G: -3.25; G92U A97C: -0.00996.
Turning to A24G, the “polymerase ribozyme fitness (log ratio)” value is -1.75.
Next, C57A A60C: -1.35; A21C A89C C95U A142G: -3.16; G71C G92A: no more than -4.2.
A121C G128C: the “polymerase ribozyme fitness (log ratio)” value was -2.44.
Next, A12U C85G: -1.91.
Next, A12G U13G C38A A41U C95A U102C A137G: no more than -4.2; A19U A22G A39C C79G: no more than -4.2.
Take U6G C14U: the “polymerase ribozyme fitness (log ratio)” value is -1.09.
Next, C10A A91G C93U U144G: no more than -4.2; A20U G59U G136C G141U: -3.78; A16U A30C U61A C96U G140U: no more than -4.2.
Consider C14U A16C C51U A52G C93U C116A A121C, for which the “polymerase ribozyme fitness (log ratio)” value is -1.81.
Next, C18U A97G C131G: -3.22.
As for A21U A24U U44A U53G U78G A97U A137C G141C, the “polymerase ribozyme fitness (log ratio)” value is no more than -4.2.
Next, C10G G92C U111A C114A: no more than -4.2; A37G U45G C57G C95U: -3.33; U56A G92A: -2.28.
For A17G C32A C51A U55A A60C G74A G81A U90G C95A the value was no more than -4.2.
Next, C10U A47U G59C A60G G62A A110U G141C U145A U148A: no more than -4.2.
As to U6G A20U C93A C116A U135A, the “polymerase ribozyme fitness (log ratio)” value is -3.29.
For C5G C8G C85A G126U the value was no more than -4.2.
For A3U C87G A113C the value was -4.19; for A16U U55A A91G G117U, no more than -4.2; for C54G C103G, no more than -4.2.
For G62C G68U A89G C108A A113U the value was no more than -4.2; for U127G G136A, -2.89; for C14G C79A C93G C96A, no more than -4.2.
On to U61A C125U, for which the “polymerase ribozyme fitness (log ratio)” value was -1.86.
C8A C14G U53C G58A G62C C85G: the “polymerase ribozyme fitness (log ratio)” value is no more than -4.2.
Next, A22U G46C C114U: -3.67; C96G A122U A142U: -1.45; A52C U55A C85G C116A: -3.78.
For G92A C105A A147U the value was -4.16; for C10G A89C U148C, no more than -4.2.
Next, A28G A37C U55A U90C A91G: no more than -4.2; U31A G50C C85U: -3.83.
Turning to G42C U45G U146C, the “polymerase ribozyme fitness (log ratio)” value is no more than -4.2.
On to A41C C149A, for which the “polymerase ribozyme fitness (log ratio)” value was -4.19.
Next, A22C C38U G81U C87G U144A: no more than -4.2; A19C C57A C131A: -2.25; G48C A49C A122U: -3.93.
For G50C C51G A52U C76U G84U C105U C114U G133A, the “polymerase ribozyme fitness (log ratio)” value is no more than -4.2.
Next, G83U G100U C103A C131U: no more than -4.2; C18U A20U G59A G94A C116G A142G A150G: no more than -4.2; A26C C32G C54U C87G C95U: -3.91.
With U56A C85U A121U C123G G124A U134A, the “polymerase ribozyme fitness (log ratio)” value was -2.61.
In the case of U31C G46C G92A, the “polymerase ribozyme fitness (log ratio)” value was -3.48.
For the variant A41C G46U C76A U102A C131G, the “polymerase ribozyme fitness (log ratio)” value was no more than -4.2.
Next, A122G A138G C149U: -4; U6A U7G C36U C85A U144A: no more than -4.2.
For the variant A16U G83A A106G A107C C118U C123G C129G A150G, the “polymerase ribozyme fitness (log ratio)” value was no more than -4.2.
For C8G C35U C85G G88U U134A the value was no more than -4.2.
For A41C C75U C87A U148A the value was no more than -4.2; for A47U C76U, -0.942.
As to A37C C103G, the “polymerase ribozyme fitness (log ratio)” value is -3.6.
For A137U the value was -3.39; for A24U U45G G92C, -2.88; for A19U G50A G71A A89G A137G, no more than -4.2.
For U45G G48A G88C A106G the value was no more than -4.2; for G70A G141A, -3.46; for C57G G67C, -4.16.
Take C27G U53A U102A: the “polymerase ribozyme fitness (log ratio)” value is no more than -4.2.
A30U C38U: the “polymerase ribozyme fitness (log ratio)” value is -3.76.
Next, A40G U53G A73G G81U G94A: no more than -4.2; C36U A52G U61A C95A A122U U144A: no more than -4.2; C54A U78G U101G A107G C118A U130A: no more than -4.2.
For C43A G58C C76A U102C G141A the value was no more than -4.2; for A49C C87U, -4.01.
As for A17U C87U C125U, the “polymerase ribozyme fitness (log ratio)” value was -1.39.
For A49C G92U U127C the value was no more than -4.2; for C10G A20U C35A C85G A142C, no more than -4.2.
Next, A19U C96U: -0.369; U15C C38U A49G C103G G141U: no more than -4.2.
Next, C10G A20G A138G U144A U145A: no more than -4.2; U56G G71C C85U C116A: no more than -4.2.
Consider U82C G94U A98G A107C, for which the “polymerase ribozyme fitness (log ratio)” value is no more than -4.2.
For A107G G141U the value was -3.07.
For G86A A89U C123U the value was -2.1; for U4C A16G A21G A41C A49U U56A G86A U135A A150G, no more than -4.2.
Next, A30U A52U C93A: no more than -4.2; C118U G140U: -3.11.
Take C10U U33G C38G U44G A52G C87U C108U C118U: the “polymerase ribozyme fitness (log ratio)” value was no more than -4.2.
C14G A19C C75U U82C C93U A97U C105G: the “polymerase ribozyme fitness (log ratio)” value is no more than -4.2.
Next, A29G C36A A47C G50C C76A C85U C118A A121U U135G: no more than -4.2; U31A C85U C114U: -1.15; A23C C114G: no more than -4.2.
Next, A24C A49C G84A A97C U130G A137U: no more than -4.2; A21G A138C: -4; G50C U101G: -2.64.
Next, A37U C96U G126U: -2.91; C79A A91G A110G: no more than -4.2; C114U C118G: -2.88.
Take A24U G62U C96A G117A: the “polymerase ribozyme fitness (log ratio)” value was -1.86.
For A17G C57A A91G C95G A122U, the “polymerase ribozyme fitness (log ratio)” value was -4.04.
Next, C18G U44G U55G G58C C93A: no more than -4.2.
For A26C C79A C87A U134C A150U the value was no more than -4.2.
For C38U C93G C125A the value was -3.39; for A47U U55A A89G A120U U144G, -0.697; for U15G G34A C75A A150U, no more than -4.2.
As to A30G C54G G68A C95G A121C, the “polymerase ribozyme fitness (log ratio)” value was no more than -4.2.
For the variant G83U G88U A150U, the “polymerase ribozyme fitness (log ratio)” value was -3.49.
As for U44A A91G U135C U144C, the “polymerase ribozyme fitness (log ratio)” value is no more than -4.2.
Next, C85U A89U A110C A121U G136A U146C: no more than -4.2; A23G A52C A98U: -3.98.
Next, U9G C38U C54U C57A A60G: no more than -4.2; G42C G86U: no more than -4.2; C18U C93U C99U A150G: -2.85.

For the origin of these results see the RNAGym collection of RNA variant scans (doi:10.1073/pnas.2313332121).
